Earlier results in publication PMC8894873.

Biological target: Glu35 (UniProt position 53, CAAKFESNFNT)
Assay: not stated (a cited reference title indicates two-dimensional 1H NMR)

Substance: Lysozyme (lysozyme C, presumably hen egg-white) (Gallus gallus (inferred; the article says only 'lysozyme'))
- pKa: 6.3
